Measured values reported in patent EP2182008A2 (ICOS Corporation, dated 2010).
Values belong to the binder of their own block, whether it stands above or below them.

B1: VCAM-1/IgG1 fusion protein (seven extracellular immunoglobulin-like domains) (Fc fusion, UniProt P19320 25-698, looked up)
chain: FKIETTPESRYLAQIGDSVSLTCSTTGCESPFFSWRTQIDSPLNGKVTNEGTTSTLTMNPVSFGNEHSYLCTATCESRKLEKGIQVEIYSFPKDPEIHLSGPLEAGKPITVKCSVADVYPFDRLEIDLLKGDHLMKSQEFLEDADRKSLETKSLEVTFTPVIEDIGKVLVCRAKLHIDEMDSVPTVRQAVKELQVYISPKNTVISVNPSTKLQEGGSVTMTCSSEGLPAPEIFWSKKLDNGNLQHLSGNATLTLIAMRMEDSGIYVCEGVNLIGKNRKEVELIVQEKPFTVEISPGPRIAAQIGDSVMLTCSVMGCESPSFSWRTQIDSPLSGKVRSEGTNSTLTLSPVSFENEHSYLCTVTCGHKKLEKGIQVELYSFPRDPEIEMSGGLVNGSSVTVSCKVPSVYPLDRLEIELLKGETILENIEFLEDTDMKSLENKSLEMTFIPTIEDTGKALVCQAKLHIDDMEFEPKQRQSTQTLYVNVAPRDTTVLVSPSSILEEGSSVNMTCLSQGFPAPKILWSRQLPNGELQPLSENATLTLISTKMEDSGVYLCEGINQAGRSRKEVELIIQVTPKDIKLTAFPSESVKEGDTVIISCTCGNVPETWIILKKKAETGDTVLKSIDGAYTIRKAQLKDAGVYECESKNKVGSQLRSLTLDVQGRENNKDYFSPE
notes: domain: seven extracellular immunoglobulin-like domains; also called VCAM-I/Ig; VCAM-I/IgG; not shown: IgG1 portion
B2: soluble ICAM-1/IgG1 fusion protein (Fc fusion, UniProt P05362 28-480, looked up)
chain: QTSVSPSKVILPRGGSVLVTCSTSCDQPKLLGIETPLPKKELLLPGNNRKVYELSNVQEDSQPMCYSNCPDGQSTAKTFLTVYWTPERVELAPLPSWQPVGKNLTLRCQVEGGAPRANLTVVLLRGEKELKREPAVGEPAEVTTTVLVRRDHHGANFSCRTELDLRPQGLELFENTSAPYQLQTFVLPATPPQLVSPRVLEVDTQGTVVCSLDGLFPVSEAQVHLALGDQRLNPTVTYGNDSFSAKASVSVTAEDEGTQRLTCAVILGNQSQETLQTVTIYSFPAPNVILTKPEVSEGTEVTVKCEAHPRAKVTLNGVPAQPLGPRAQLLLKATPEDNGRSFSCSATLEVAGQLIHKNQTRELRVLYGPRLDERDCPGNWTWPENSQQTPMCQAWGNPLPELKCLKDGTFPLPIGESVTVTRDLEGTYLCRARSTQGEVTRKVTVNVLSPRYE
notes: also called ICAM-I/IgG; not shown: IgG1 portion
B6: soluble ICAM-R/IgG1 fusion protein (Fc fusion, UniProt P32942 30-485, looked up)
chain: QEFLLRVEPQNPVLSAGGSLFVNCSTDCPSSEKIALETSLSKELVASGMGWAAFNLSNVTGNSRILCSVYCNGSQITGSSNITVYRLPERVELAPLPPWQPVGQNFTLRCQVEDGSPRTSLTVVLLRWEEELSRQPAVEEPAEVTATVLASRDDHGAPFSCRTELDMQPQGLGLFVNTSAPRQLRTFVLPVTPPRLVAPRFLEVETSWPVDCTLDGLFPASEAQVYLALGDQMLNATVMNHGDTLTATATATARADQEGAREIVCNVTLGGERREARENLTVFSFLGPIVNLSEPTAHEGSTVTVSCMAGARVQVTLDGVPAAAPGQPAQLQLNATESDDGRSFFCSATLEVDGEFLHRNSSVQLRVLYGPKIDRATCPQHLKWKDKTRHVLQCQARGNPYPELRCLKEGSSREVPVGIPFFVNVTHNGTYQCQASSSRGKYTLVVVMDIEAGSSH
notes: not shown: IgG1 portion

Legend:
[1] = target: T1, LFA-1 leucine zipper fusion protein (UniProt P20701 26-1090; P05107 23-700); assay: ELISA, CAM/Ig on LFA-1LZ captured with TS2/4.1
T1 construct: also called LFA-1LZ; captured CD11a/CD18; not shown: leucine zipper strand

[2] = target: T1, LFA-1 leucine zipper fusion protein; assay: ELISA, CAM/Ig on captured integrin
[3] = target: T2, human αd/CD18 expressed on transfected cells (human, UniProt P05107 23-769); assay: adhesion of transfected CHO cells to immobilized CAM, crystal violet
T2 construct: whole, on cells; Heterodimer on COS, CHO or JY transfectants; also called αd/CD18 transfectants; αd/CD18 CHO transfected cells

[4] = target: T3, α4β1 expressed on CHO cells (UniProt P13612 34-1032; P05556 21-798, limits assumed); assay: as above
T3 construct: whole, on cells; also called VLA-4; α4 transformed CHO cells
T3 sequence (P13612 34-1032 limits assumed, chain 1 of 2): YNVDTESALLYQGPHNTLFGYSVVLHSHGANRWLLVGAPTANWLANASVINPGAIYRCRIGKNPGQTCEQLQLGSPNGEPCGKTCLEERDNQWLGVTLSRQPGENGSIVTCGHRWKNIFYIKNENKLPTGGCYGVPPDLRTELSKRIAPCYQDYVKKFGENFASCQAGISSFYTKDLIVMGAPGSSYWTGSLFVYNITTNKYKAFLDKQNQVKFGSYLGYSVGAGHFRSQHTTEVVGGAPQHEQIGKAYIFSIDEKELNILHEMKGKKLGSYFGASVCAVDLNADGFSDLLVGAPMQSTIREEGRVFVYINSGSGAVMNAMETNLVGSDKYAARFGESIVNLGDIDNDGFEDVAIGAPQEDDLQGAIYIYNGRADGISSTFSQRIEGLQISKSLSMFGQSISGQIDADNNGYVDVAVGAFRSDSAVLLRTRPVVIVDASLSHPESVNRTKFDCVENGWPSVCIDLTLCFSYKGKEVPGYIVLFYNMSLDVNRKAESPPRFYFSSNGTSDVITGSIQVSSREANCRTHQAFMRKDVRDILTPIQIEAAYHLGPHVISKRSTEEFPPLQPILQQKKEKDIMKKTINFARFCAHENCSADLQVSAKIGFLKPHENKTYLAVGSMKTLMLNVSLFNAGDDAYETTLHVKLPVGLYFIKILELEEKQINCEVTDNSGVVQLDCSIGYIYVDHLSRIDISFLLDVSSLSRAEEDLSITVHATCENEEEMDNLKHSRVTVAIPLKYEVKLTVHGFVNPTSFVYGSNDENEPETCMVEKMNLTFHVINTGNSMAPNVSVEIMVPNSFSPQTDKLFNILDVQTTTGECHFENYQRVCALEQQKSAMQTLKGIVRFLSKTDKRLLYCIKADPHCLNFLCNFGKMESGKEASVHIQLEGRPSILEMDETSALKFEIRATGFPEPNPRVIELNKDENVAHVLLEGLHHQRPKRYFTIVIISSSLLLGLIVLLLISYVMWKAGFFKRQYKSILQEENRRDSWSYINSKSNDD
T3 sequence (P05556 21-798 limits assumed, chain 2 of 2): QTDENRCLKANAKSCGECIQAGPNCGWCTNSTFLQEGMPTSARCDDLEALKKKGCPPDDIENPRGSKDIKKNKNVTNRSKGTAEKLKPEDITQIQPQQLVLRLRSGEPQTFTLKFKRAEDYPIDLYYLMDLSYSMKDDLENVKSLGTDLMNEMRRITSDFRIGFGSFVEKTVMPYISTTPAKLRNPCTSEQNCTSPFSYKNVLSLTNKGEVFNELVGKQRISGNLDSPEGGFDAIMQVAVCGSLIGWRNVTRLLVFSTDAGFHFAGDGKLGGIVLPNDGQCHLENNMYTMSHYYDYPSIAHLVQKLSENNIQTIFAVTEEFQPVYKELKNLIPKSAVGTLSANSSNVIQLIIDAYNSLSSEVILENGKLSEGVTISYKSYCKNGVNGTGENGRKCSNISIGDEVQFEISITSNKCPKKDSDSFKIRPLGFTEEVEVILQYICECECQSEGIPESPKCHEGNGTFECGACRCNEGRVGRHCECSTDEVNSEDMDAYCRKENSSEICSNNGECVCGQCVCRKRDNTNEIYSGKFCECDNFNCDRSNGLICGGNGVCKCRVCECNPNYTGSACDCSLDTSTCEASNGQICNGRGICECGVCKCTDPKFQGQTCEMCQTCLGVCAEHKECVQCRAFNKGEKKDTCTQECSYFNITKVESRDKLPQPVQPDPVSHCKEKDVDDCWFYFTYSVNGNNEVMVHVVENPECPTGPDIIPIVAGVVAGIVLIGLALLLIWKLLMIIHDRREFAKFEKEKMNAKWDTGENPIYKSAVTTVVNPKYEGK

[5] = target: B6; assay: ELISA, detection with anti-IgG4 HP6023
[6] = target: B2; assay: ELISA, detection with anti-IgG4 HP6023
[7] = target: B1; assay: ELISA, detection with anti-IgG4 HP6023
[8] = target: T2, human αd/CD18 expressed on transfected …; assay: adhesion of transfected CHO cells to immobilized CAM, crystal violet, A570
[9] = target: T2, human αd/CD18 expressed on transfected …; assay: adhesion of αdβ2-transfected CHO cells to coated wells
[10] = target: T2, human αd/CD18 expressed on transfected …; assay: summary of the adhesion and flow cytometry assays

Binder: B1
binding result [1]: no binding

Binder: B2
fold above background [2]: ~15 fold
binding result [3]: no binding (tested: 0.5 µg/well)
binding result [4]: no binding (tested: 0.5 µg/well)

binding result [5]: no binding
binding result [6]: no binding
binding result [7]: no binding
B3: CD11a I domain/IgG chimeric protein (Fc fusion, UniProt P20701 153-335, looked up)
chain: GNVDLVFLFDGSMSLQPDEFQKILDFMKDVMKKLSNTSYQFAAVQFSTSYKTEFDFSDYVKRKDPDALLKHVKHMLLLTNTFGAINYVATEVFREELGARPDATKVLIIITDGEATDSGNIDAAKDIIRYIIGIGKHFQTKESQETLHKFASKPASEFVKILDTFEKLKDLFTELQKKIYVIE
notes: domain: I domain; Negative control in the I domain ELISA; also called CD11a/IgG4 protein; not shown: IgG4 portion

binding result [8]: binds
B4: VCAM-1 domains 1 and 2 fused to human immunoglobulin Fc (Fc fusion, UniProt P19320 25-220, looked up)
chain: FKIETTPESRYLAQIGDSVSLTCSTTGCESPFFSWRTQIDSPLNGKVTNEGTTSTLTMNPVSFGNEHSYLCTATCESRKLEKGIQVEIYSFPKDPEIHLSGPLEAGKPITVKCSVADVYPFDRLEIDLLKGDHLMKSQEFLEDADRKSLETKSLEVTFTPVIEDIGKVLVCRAKLHIDEMDSVPTVRQAVKELQVY
notes: domain: domains 1 and 2; also called two domain form of VCAM-1; two domain VCAM-1 expression construct; not shown: human immunoglobulin Fc

binding result [9]: no binding (tested: 100 ng/ml coat)
B5: E-selectin (immobilized) (ligand, UniProt P16581 22-556, looked up)
chain: WSYNTSTEAMTYDEASAYCQQRYTHLVAIQNKEEIEYLNSILSYSPSYYWIGIRKVNNVWVWVGTQKPLTEEAKNWAPGEPNNRQKDEDCVEIYIKREKDVGMWNDERCSKKKLALCYTAACTNTSCSGHGECVETINNYTCKCDPGFSGLKCEQIVNCTALESPEHGSLVCSHPLGNFSYNSSCSISCDRGYLPSSMETMQCMSSGEWSAPIPACNVVECDAVTNPANGFVECFQNPGSFPWNTTCTFDCEEGFELMGAQSLQCTSSGNWDNEKPTCKAVTCRAVRQPQNGSVRCSHSPAGEFTFKSSCNFTCEEGFMLQGPAQVECTTQGQWTQQIPVCEAFQCTALSNPERGYMNCLPSASGSFRYGSSCEFSCEQGFVLKGSKRLQCGPTGEWDNEKPTCEAVRCDAVHQPPKGLVRCAHSPIGEFTYKSSCAFSCEEGFELHGSTQLECTSQGQWTEEVPSCQVVKCSSLAVPGKINMSCSGEPVFGTVCKFACPEGWTLNGSAARTCGATGHWSGLLPTCEAPTESNIP
notes: Control adhesion molecule; also called E-selection

Binder: B6
binding result [10]: binds
